Assay results: IntAct's records for PubMed 9753447

B1: Ferredoxin--NADP reductase (Anabaena sp. (strain PCC 7119)), P21890 (parent)
chain: MSNQGAFDGAANVESGSRVFVYEVVGMRQNEETDQTNYPIRKSGSVFIRVPYNRMNQEMQRITRLGGKIVTIQTVSALQQLNGRTTIATVTDASSEIAKSEGNGKATPVKTDSGAKAFAKPPAEEQLKKKDNKGNTMTQAKAKHADVPVNLYRPNAPFIGKVISNEPLVKEGGIGIVQHIKFDLTGGNLKYIEGQSIGIIPPGVDKNGKPEKLRLYSIASTRHGDDVDDKTISLCVRQLEYKHPESGETVYGVCSTYLTHIEPGSEVKITGPVGKEMLLPDDPEANVIMLATGTGIAPMRTYLWRMFKDAERAANPEYQFKGFSWLVFGVPTTPNILYKEELEEIQQKYPDNFRLTYAISREQKNPQGGRMYIQDRVAEHADELWQLIKNQKTHTYICGLRGMEEGIDAALSAAAAKEGVTWSDYQKDLKKAGRWHVETY
B2: Ferredoxin--NADP reductase (Anabaena sp. (strain PCC 7119)), P21890 (parent)
chain: B1 chain
partner: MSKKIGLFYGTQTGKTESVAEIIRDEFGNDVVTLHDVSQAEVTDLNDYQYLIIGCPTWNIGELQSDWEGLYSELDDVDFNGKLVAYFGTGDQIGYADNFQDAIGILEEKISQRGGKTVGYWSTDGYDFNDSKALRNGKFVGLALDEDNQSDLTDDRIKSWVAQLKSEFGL

Variants of: B1
Settings: with fer1_nosso petF

Row | Variant | effect of a mutation on the interaction
1 | K206S | decreasing interaction
2 | K206E | decreasing interaction
3 | K206Q | decreasing interaction

Variants of: B2
Settings: with flav_nosso isiB

Row | Variant | effect of a mutation on the interaction
4 | K206E | decreasing interaction
5 | K206Q | decreasing interaction
6 | K206S | decreasing interaction
